In patent US20100248978:

Molecular target: T1, p-hydroxyphenylpyruvate dioxygenase (HPPD) (Arabidopsis thaliana) (UniProt P93836)
T1 sequence: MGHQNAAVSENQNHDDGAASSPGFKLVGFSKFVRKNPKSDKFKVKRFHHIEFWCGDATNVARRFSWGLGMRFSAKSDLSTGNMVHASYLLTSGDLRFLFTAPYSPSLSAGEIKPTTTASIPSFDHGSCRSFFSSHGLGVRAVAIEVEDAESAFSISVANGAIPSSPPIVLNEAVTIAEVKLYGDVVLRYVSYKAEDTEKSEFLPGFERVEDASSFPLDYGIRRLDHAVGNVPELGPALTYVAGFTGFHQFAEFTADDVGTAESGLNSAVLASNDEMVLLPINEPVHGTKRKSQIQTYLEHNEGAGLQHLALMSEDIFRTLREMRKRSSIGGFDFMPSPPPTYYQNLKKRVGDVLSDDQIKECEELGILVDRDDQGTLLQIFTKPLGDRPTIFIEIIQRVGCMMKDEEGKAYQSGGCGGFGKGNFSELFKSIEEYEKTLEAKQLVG
Assay: filter
Details: 500 nM HPPD, 10% DMSO

GGGAGAGGAGGGAGAUAGAUAUCAANNNNNNNNNNNNNNNNNNNNNNNNNNNNNNNNNNNNNNNNNNNNNNNAGUUUGUCCUCACGGUGGAUGG [S115B enriched library (cycle 9)]
binding signal (% RNA retained): 10
